# In US20230277590A1:
# Experiments:
# [1] = target: Mesothelin (MSLN) on target cells (human)
# [2] = target: Mesothelin (MSLN) on target cells (human); remark: listed apart in the source
Substance,Time (hours) to 80% max killing of HeLa cells by transduced primary T cells (hours to 80% max killing (E:T 4:1)) [1],"EC50, Jurkat NFAT luciferase, HEK293 cells transfected with titrated MSLN mRNA (MSLN molecules/cell) [2]"
"M5 MSLN CAR, third generation",28,
m912 MSLN CAR (Gen3),,80000
